According to paper PMC2118261:

Assays:
[1] = biological target: human CD1d loaded with α-galactosylceramide, biotinylated (human) (UniProt P15813); assay: SPR
[2] = biological target: mouse CD1d loaded with α-galactosylceramide, biotinylated (for SPR) (mouse) (UniProt P11609); assay: SPR
UniProt P11609, sequence (P11609 22-336): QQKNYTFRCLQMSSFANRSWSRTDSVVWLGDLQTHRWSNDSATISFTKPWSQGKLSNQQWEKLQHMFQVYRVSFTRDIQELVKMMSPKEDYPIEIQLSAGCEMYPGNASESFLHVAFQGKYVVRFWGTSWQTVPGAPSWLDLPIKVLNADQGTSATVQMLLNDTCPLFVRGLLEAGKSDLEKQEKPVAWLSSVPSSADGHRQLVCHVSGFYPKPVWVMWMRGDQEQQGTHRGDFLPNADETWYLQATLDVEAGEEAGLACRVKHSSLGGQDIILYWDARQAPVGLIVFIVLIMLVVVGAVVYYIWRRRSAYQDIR

UniProt P15813, sequence (P15813 20-335): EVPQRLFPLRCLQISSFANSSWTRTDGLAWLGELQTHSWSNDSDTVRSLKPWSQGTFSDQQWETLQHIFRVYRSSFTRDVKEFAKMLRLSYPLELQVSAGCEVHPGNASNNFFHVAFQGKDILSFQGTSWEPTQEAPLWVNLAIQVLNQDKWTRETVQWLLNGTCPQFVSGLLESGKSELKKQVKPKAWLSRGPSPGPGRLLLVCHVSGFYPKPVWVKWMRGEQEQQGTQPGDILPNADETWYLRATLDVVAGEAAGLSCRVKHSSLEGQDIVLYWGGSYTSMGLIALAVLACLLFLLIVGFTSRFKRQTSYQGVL

fold lower affinity than NKT15 [1] [fold] | fold lower affinity than NKT15 [2] [fold] | Kd [1] [µM] | Kd [2] [µM] | Substance
5 to 10 | 5 to 10 | – | – | NKT15α-chain/NKT15 β-chain engrafted with the LC13 CDR3β-loop (TCR)
– | – | 10 | 20 | NKT15 TCR (human semi-invariant NKT cell αβ T cell receptor, soluble extracellular domains)
